Laboratory results as given in patent US20190359653A1 (Genentech, published 2019).
Like-named read-outs stand apart in the source and are kept apart here. Numbered stars: 1 amine (or outer) side, 2 acyl side, 3 side chain; on linkers, the order of the positions; unused ones are H or OH. Square brackets hold non-standard residues; d marks the D form. Ends that are not written are not given here. * marks the point of attachment. ξ: configuration not given here. Adp = 2-amino-3-decyloxy-propionic acid, CCCCCCCCCCOC[C@H](N[*:1])C(=O)[*:2]; Tbh = 6-hydroxy-L-norleucine, O=C([C@H](CCCCO[*:3])N[*:1])[*:2]; hPhe = N[C@@H](CCc1ccccc1)C(=O)O; ξGly(octyl) = CCCCCCCCC(N)C(=O)O; hLeu = CC(C)CC[C@H](N)C(=O)O; Octanoyl = CCCCCCCC(=O)*

T1: hFZD8 CRD-Fc (human, UniProt Q9H461 28-158, limits assumed)
T1 construct: domain: CRD; bought (R&D Systems); not shown: Fc part
T1 sequence (looked up): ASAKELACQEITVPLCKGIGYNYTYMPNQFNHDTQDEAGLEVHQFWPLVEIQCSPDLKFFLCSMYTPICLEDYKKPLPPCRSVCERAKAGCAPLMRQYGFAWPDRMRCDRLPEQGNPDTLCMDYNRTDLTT


Tests used:
[1] = target: T2, FZD7 receptor of HEK293-TB cells (human, UniProt O75084 33-574); assay: cell-based or functional assay
[2] = target: T2, FZD7 receptor of HEK293-TB cells; assay: cell-based or functional assay; remark: listed apart in the source
hFZD7 CRD-Fc [3] = target: T3, hFZD7 CRD-Fc (human, UniProt O75084 33-185); assay: spot phage ELISA
hFZD8 CRD-Fc [4] = target: T1, hFZD8 CRD-Fc; assay: spot phage ELISA
hFZD7 CRD-Fc [5] = target: T3, hFZD7 CRD-Fc; assay: spot phage ELISA; remark: listed apart in the source
hFZD8 CRD-Fc [6] = target: T1, hFZD8 CRD-Fc; assay: spot phage ELISA; remark: listed apart in the source
hFZD7 CRD-Fc [7] = target: T3, hFZD7 CRD-Fc; assay: spot phage ELISA; remark: listed apart in the source
[8] = target: T2, FZD7 receptor of HEK293-TB cells; assay: cell-based or functional assay; remark: listed apart in the source

| Binder | signal:noise ratio (hFZD7 CRD-Fc [3]) | signal:noise ratio (hFZD8 CRD-Fc [4]) | other results |
| --- | --- | --- | --- |
| Ac-SDDLEFWCHV[Tbh]Y-NH2 (also: dimer via disulfide bond at Cys8) [dFz7-21Δ2.M13Tbh] |  |  | Best Fit IC50 (nM), Wnt3a-mediated β-catenin signaling in HEK293-TB cells (50 ng/mL mWnt3a) [1]: 477 nM |
| Ac-LPSDDLEFWSHVMY-NH2 [Fz7-21S] |  |  | Reduction in fold potency vs. dimer [2]: > 9000 fold |
| Ac-SDD[hLeu]EFWCHVMY-NH2 (also: dimer via disulfide bond at Cys8) [dFz7-21Δ2.L6Hol] |  |  | Best Fit IC50 (nM), Wnt3a-mediated β-catenin signaling in HEK293-TB cells (50 ng/mL mWnt3a), n = 2 [1]: 16600 nM |
| VFFYHSLFFIKLILDP [SEQ ID NO 28] | 4.7 | 1.3 |  |
| VFVPFSELTSLC [SEQ ID NO 22] | 7.8 | 1 |  |
| YEHLHDLMDLIRPW (also called Fz7-07) [SEQ ID NO 1] | 23.2 | 1.6 |  |
| FWMQLQDGFAIWFP [SEQ ID NO 15] | 27.8 |  |  |
| LPLFFLSYVL [SEQ ID NO 19] | 6.3 | 1.1 |  |
| LSSGKKVSSYWFNFWF [SEQ ID NO 30] | 3.5 | 1 |  |
| GDFWPGSLLWEILV [SEQ ID NO 17] | 4.4 | 1 |  |
| SCQMWSNLRVLFLSYW [SEQ ID NO 21] | 1 | 0.7 |  |
| Ac-SDDK(Octanoyl)EFWCHVMY-NH2 (also: dimer via disulfide bond at Cys8) [dFz7-21Δ2.L6KC (8)] |  |  | Best Fit IC50 (nM), Wnt3a-mediated β-catenin signaling in HEK293-TB cells (50 ng/mL mWnt3a) [1]: 1170 nM |
| ILTFEYFWILGLIL [SEQ ID NO 18] | 4.5 | 1.1 |  |
| HLSDVCCSDWCDLVFW (not fully specified; cysteine pairing not given here, cyclic peptide library) [SEQ ID NO 34] |  |  | signal:noise ratio (hFZD7 CRD-Fc [5]): 16.1; signal:noise ratio (hFZD8 CRD-Fc [6]): 1.09 |
| FWMLLQEGFAFWFP [SEQ ID NO 7] | 30.5 | 6.4 |  |
| VPSDDLEFWCAVMY [SEQ ID NO 95] |  |  | S/N (hFZD7 CRD-Fc [7]): 2.1; S/W (hFZD7 CRD-Fc [7]): 0.1 |
| FLPDQHSHLFLPWGEP [SEQ ID NO 20] | 5.3 | 1 |  |
| ISLIEAMIALDRVF (also called Fz7-06) [SEQ ID NO 11] | 27 | 25.8 |  |
| NAFWRDQCLEWFIICL [SEQ ID NO 24] | 5.5 | 1.1 |  |
| IWFKGRFVEFSSLV (also called Fz7-17) [SEQ ID NO 23] | 7.7 | 1 |  |
| ACSYVIDLWNQCLT [SEQ ID NO 4] | 26.8 | 3.1 |  |

| Binder | signal:noise ratio (hFZD7 CRD-Fc [3]) | signal:noise ratio (hFZD8 CRD-Fc [4]) | other results |
| --- | --- | --- | --- |
| ASELHDWCRMMFPW [SEQ ID NO 10] | 28.9 | 1.3 |  |
| LPSDDLEFWCHVMY (also called Fz7-21) [SEQ ID NO 13] | 24.5 | 1.1 |  |
| FCENPYIICW [SEQ ID NO 26] | 8.6 | 0.8 |  |
| PPNVHEGCWSMFPW [SEQ ID NO 12] | 28.1 | 1.3 |  |
| Ac-SDDLEFWCHVMY-NH2 (also: homodimer via Cys8 disulfide) [dFz7-21Δ2 (Q519)] |  |  | IC50 (nM), TOPbrite reporter assay in HEK293-TB cells stimulated with mWnt3a (50 ng/mL) [2]: 8.8 nM; Reduction in fold potency vs. dimer [2]: 1 fold; Best Fit IC50 (nM), Wnt3a-mediated β-catenin signaling in HEK293-TB cells (50 ng/mL mWnt3a) [1]: 4.3 nM |
| EHDLLLRAMNSFVLIF [SEQ ID NO 25] | 7.6 | 1 |  |
| AAADDLAAWCHVVY [SEQ ID NO 98] |  |  | S/N (hFZD7 CRD-Fc [7]): 50.8; S/W (hFZD7 CRD-Fc [7]): 2.7 |
| Ac-LPSDDLEFW[dC]HVMY-NH2 [Fz7-21C] |  |  | fold reduction of the potency of Wnt1 inhibition against Fz7-21 (FIG. 2D) [8]: 16 fold; fold reduction of the potency of Wnt3a inhibition against Fz7-21 (FIG. 2D) [8]: 31 fold |
| NPPPECFLSK [SEQ ID NO 27] | 5.2 | 1.1 |  |
| DTDLHQWCLWFT [SEQ ID NO 6] | 30.2 | 9.3 |  |
| DTDLLQWCLWFT [SEQ ID NO 14] | 31.1 | 6 |  |
| Ac-SDDLEFWCHV[Adp]Y-NH2 (also: dimer via disulfide bond at Cys8) [dFz7-21Δ2.M13Adp] |  |  | Best Fit IC50 (nM), Wnt3a-mediated β-catenin signaling in HEK293-TB cells (50 ng/mL mWnt3a) [1]: 1410 nM |
| FELLLDLGDLIRLW [SEQ ID NO 8] | 26.9 | 2 |  |
| ERRVCYPWFEVSQP [SEQ ID NO 29] | 2.6 | 1.2 |  |
| Ac-SDD[hPhe]EFWCHVMY-NH2 (also: dimer via disulfide bond at Cys8) [dFz7-21Δ2.L6Hof] |  |  | Best Fit IC50 (nM), Wnt3a-mediated β-catenin signaling in HEK293-TB cells (50 ng/mL mWnt3a) [1]: 14.9 nM |
| Ac-LPSDDLEFWCHVMY-NH2 (also: homodimer via Cys10-Cys10 disulfide) [dFz7-21] |  |  | IC50 (nM), TOPbrite reporter assay in HEK293-TB cells stimulated with mWnt3a (50 ng/mL) [2]: 11.1 nM; Reduction in fold potency vs. dimer [2]: 1 fold; Best Fit IC50 (nM), Wnt3a-mediated β-catenin signaling in HEK293-TB cells (50 ng/mL mWnt3a) [1]: 14.1 nM |
| ACSYVIDLWNLCLR [SEQ ID NO 9] | 27.6 | 1.5 |  |
| TYFDDICNLILPWANP [SEQ ID NO 2] | 27.5 | 1.4 |  |
| FWFDFWFG [SEQ ID NO 31] | 4.2 | 0.8 |  |
| Ac-SDDLEFWCHV[ξGly(octyl)]Y-NH2 (also: dimer via disulfide bond at Cys8) [dFz7-21Δ2.M13C8] |  |  | Best Fit IC50 (nM), Wnt3a-mediated β-catenin signaling in HEK293-TB cells (50 ng/mL mWnt3a) [1]: 14000 nM |
| PQDLLDWCHYMIVSSD [SEQ ID NO 3] | 29.1 | 1.3 |  |
